System: CD4+CD25- T cells stimulated with allogeneic pDCs
Experiment: MLR: suppression of CFSE-labelled CD4+CD25- T cell proliferation in response to allogeneic pDCs
Type: cell-based, rat
Details: dose dependent, 0.1 to 2 μg/ml, 6 days of culture
Protocol: FIG. 3: Detection of IL-34 using an AAV-IL-34 and inhibition of allo-T cell responses. A. Supernatants of AAV-IL-34 or AAV-GFP-transduced cells were tested for suppression of CD4^+CD25^− T cell proliferation in response to allogeneic pDCs and analysed by flow cytometry for CFSE dilution after 5 days of culture. CD8^+ Tregs were used as positive control of suppression. n=3 in duplicates; Results are expressed as mean±SEM of normalized percentage of proliferation vs. proliferation in the absence of CD8^+ Tregs (100%). […] B. Serial dilution of sera from AAV-IL-34 or AAV-GFP-treated rats or naive animals were tested for suppression of CD4^+CD25^− T cell proliferation in response to allogeneic pDCs and analysed by flow cytometry for CFSE dilution after 5 days of culture. CD8^+ Tregs were used as positive control of suppression. n=3 in duplicates; Results are expressed as mean±SEM of normalized percentage of proliferation vs. proliferation in the absence of CD8^+ Tregs (100%). *, p<0.01; **, p<0.001; ***, p<0.0001 vs. sera from naïve animals.
FIG. 6: M-CSF mediated dose dependent suppression of anti-donor effector CD4^÷CD25^− T cells responses. (A) FACS Aria-sorted CD8^+CD45RC^low Tregs from spleen of naive or 120 days old AdCD40Ig-treated recipients (n=6) were analysed for M-CSF mRNA expression by quantitative RT-PCR. *p<0.05. […]

B1: M-CSF: M-CSF protein (ab56288, ABCAM), macrophage colony stimulating factor (protein, UniProt Q8JZQ0 33-566, looked up)
Macrophage colony-stimulating …: EVSEHCSHMIGNGHLQILQQLIDSQMETACLIEYKFVDQEQLDDPVCYLKKAFVLVQVIIEETMRFKDNTPNANATERLQELSMKLNSCFIKDYKEQNEACVQTYKESPLRLLEKIKNFFNETKNFLEKDWNIFSKNCNDSFAKCSSRDVVTKPDCNCLYPKATPSSDLASASPHQPPAPSMAPLADLAWDDSQRTEGSSLLPSDLPLRIEDPGSAKQRPPRSTCQTLESTEQPNHEDPQPHPSAGAPIPGVEDIIESSMGTNWVLEEASGEASEGFLTQERKFSPSNPVGGSIQAETDRPWARSASSPFPKLTEDQQPTNITDTPLTEVNPMRPTGQTLNNTPEKTDGSSTLREDQQEPRSPHFATLNPQRVGNSATPYAKLLPPKSHSWGIVLPLGELEGKKSTRDRRSPAELKGGPASEGAARPVAQSTRDRRSPAELKGGPASEGAARPVARFNSIPLTDTGSSIQDPQTSAFVFWVLGIILVLLAVGGLLFYSWKRRSHRDPRTLDSSVGRPEGSSLAQDEDRQVELPV
For B1, the “suppression of CD4+CD25- T cells proliferation” value was “up to 93.5%”.
